Source: patent US20240269307A1 (JIANGSU HENGRUI PHARMACEUTICALS, published 2024)

T1: human Nectin-4 expressed on cells (Nectin4-CHOK1, T47D, MDA-MB-468) (human, UniProt Q96NY8 32-510)
T1 sequence: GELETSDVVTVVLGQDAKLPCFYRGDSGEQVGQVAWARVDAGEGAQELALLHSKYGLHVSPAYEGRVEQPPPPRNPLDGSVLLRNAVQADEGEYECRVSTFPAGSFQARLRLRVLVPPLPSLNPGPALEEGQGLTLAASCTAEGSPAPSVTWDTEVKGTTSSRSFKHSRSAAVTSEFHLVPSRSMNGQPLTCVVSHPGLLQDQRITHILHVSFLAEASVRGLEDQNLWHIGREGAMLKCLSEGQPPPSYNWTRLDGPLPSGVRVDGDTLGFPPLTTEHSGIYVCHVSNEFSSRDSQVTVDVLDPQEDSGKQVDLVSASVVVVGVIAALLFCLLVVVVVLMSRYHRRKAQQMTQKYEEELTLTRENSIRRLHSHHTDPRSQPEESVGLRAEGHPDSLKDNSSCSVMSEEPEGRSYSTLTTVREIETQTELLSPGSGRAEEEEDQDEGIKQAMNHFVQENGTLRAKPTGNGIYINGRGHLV


Legend:
[1] = molecular target: T1, human Nectin-4 expressed on cells …; assay: cell-based or functional assay
[2] = molecular target: T1, human Nectin-4 expressed on cells …; assay: cell-based or functional assay; remark: listed apart in the source

Row | Binder | IC50(nM), killing of MDA-MB-468 (++) cells, CTG, 6 days [1] | IC50(nM), killing of T47D (+++) cells, CTG, 6 days [1] | IC50 (nM), DT3C antibody endocytosis assay on Nectin4-CHOK1 cells [2]
1 | ADC-1 (NEC49-9-A) (antibody, V domains shown, compound 9-A (exatecan analog linker-drug) coupled to cysteine sulfhydryls after TCEP reduction; average loading n=4.90 for the whole antibody; positions not given) VH: EVQLLESGGGLVQPGGSLRLSCAASGFTFSSYAMSWVRQAPGKGLEWVSAIYSGGSTYYADSVKGRFTISRDNSKNTLYLQMNSLRAEDTAVYYCTRHGGDSGSWSYYYYGMDVWGQGTTVTVSS VL: not shown | 87.5 nM | 111 nM | 
2 | fully human antibody molecule NEC49 (antibody, V domains shown) VH: EVQLLESGGGLVQPGGSLRLSCAASGFTFSSYAMSWVRQAPGKGLEWVSAIYSGGSTYYADSVKGRFTISRDNSKNTLYLQMNSLRAEDTAVYYCTRHGGDSGSWSYYYYGMDVWGQGTTVTVSS VL: not shown |  |  | 0.43 nM
3 | ADC-2 (EV201-9-A) (antibody, human IgG1, kappa, V domains shown, compound 9-A (exatecan analog linker-drug) coupled to cysteine sulfhydryls after TCEP reduction; average loading n=3.90 for the whole antibody; positions not given) VH: EVQLVESGGGLVQPGGSLRLSCAASGFTFSSYNMNWVRQAPGKGLEWVSYISSSSSTIYYADSVKGRFTISRDNAKNSLSLQMNSLRDEDTAVYYCARAYYYGMDVWGQGTTVTVSS VL: DIQMTQSPSSVSASVGDRVTITCRASQGISGWLAWYQQKPGKAPKFLIYAASTLQSGVPSRFSGSGSGTDFTLTISSLQPEDFATYYCQQANSFPPTFGGGTKVEIKR | 152 nM | 193 nM | 
4 | positive control antibody EV201 (antibody, human IgG1, kappa, V domains shown) VH: EVQLVESGGGLVQPGGSLRLSCAASGFTFSSYNMNWVRQAPGKGLEWVSYISSSSSTIYYADSVKGRFTISRDNAKNSLSLQMNSLRDEDTAVYYCARAYYYGMDVWGQGTTVTVSS VL: DIQMTQSPSSVSASVGDRVTITCRASQGISGWLAWYQQKPGKAPKFLIYAASTLQSGVPSRFSGSGSGTDFTLTISSLQPEDFATYYCQQANSFPPTFGGGTKVEIKR |  |  | 0.5 nM
